The source of these data is patent US20050069951A1 (KARO BIO, published 2005).

As usually defined, the Ki is the equilibrium dissociation constant of an inhibitor or competing ligand from its target. Low values mean a stronger hold on the target, high ones a looser hold on the target.

The target in assay [1] is T1, Agrobacterium faecalis beta-glucosidase (Agrobacterium faecalis, UniProt P12614 1-459, biotinylated with Sulfo NHS-LC-LC biotin, sites not stated).
T1 construct: captured on streptavidin beads or plates; also called β-glucosidase
T1 sequence: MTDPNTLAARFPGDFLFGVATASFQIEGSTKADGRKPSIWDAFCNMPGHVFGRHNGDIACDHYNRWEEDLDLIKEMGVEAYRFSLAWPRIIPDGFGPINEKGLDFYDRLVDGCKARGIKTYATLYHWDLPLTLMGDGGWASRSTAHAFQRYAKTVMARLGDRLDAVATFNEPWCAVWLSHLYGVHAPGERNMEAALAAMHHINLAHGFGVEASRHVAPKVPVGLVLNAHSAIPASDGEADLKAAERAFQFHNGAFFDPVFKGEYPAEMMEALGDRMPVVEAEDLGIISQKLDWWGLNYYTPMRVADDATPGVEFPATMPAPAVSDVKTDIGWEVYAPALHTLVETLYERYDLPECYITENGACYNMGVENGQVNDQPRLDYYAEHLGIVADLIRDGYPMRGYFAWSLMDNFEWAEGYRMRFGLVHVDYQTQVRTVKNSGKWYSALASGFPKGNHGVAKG
The experiment in a line: phage ELISA, biotinylated target on streptavidin plate. For orientation: ELISA stands for enzyme-linked immunosorbent assay.

Assay [2] concerns the target T2, Yeast alcohol dehydrogenase (yeast, UniProt P00330 2-348).
T2 sequence (looked up): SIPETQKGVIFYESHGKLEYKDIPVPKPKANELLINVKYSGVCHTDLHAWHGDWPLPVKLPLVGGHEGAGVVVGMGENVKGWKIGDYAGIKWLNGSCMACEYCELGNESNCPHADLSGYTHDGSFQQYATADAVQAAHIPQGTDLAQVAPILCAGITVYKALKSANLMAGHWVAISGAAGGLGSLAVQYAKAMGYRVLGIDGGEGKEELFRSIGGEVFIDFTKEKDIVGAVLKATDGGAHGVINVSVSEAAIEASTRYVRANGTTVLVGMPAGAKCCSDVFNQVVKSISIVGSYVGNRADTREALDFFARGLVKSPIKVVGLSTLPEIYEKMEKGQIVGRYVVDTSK
Nature of the assay: cross reactivity phage ELISA.

For assay [3], the target named is T3, carboxypeptidase B from pig pancreas (pig, UniProt P09955 111-416).
T3 sequence (looked up): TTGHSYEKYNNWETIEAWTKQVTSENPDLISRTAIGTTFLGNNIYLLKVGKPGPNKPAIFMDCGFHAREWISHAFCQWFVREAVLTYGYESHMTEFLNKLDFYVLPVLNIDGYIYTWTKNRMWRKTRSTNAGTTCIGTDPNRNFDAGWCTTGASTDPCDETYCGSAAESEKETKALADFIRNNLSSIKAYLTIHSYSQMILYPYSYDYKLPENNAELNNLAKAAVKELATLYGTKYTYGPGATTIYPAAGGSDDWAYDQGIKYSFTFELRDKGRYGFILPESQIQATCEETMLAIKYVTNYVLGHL
The experiment in a line: cross reactivity phage ELISA.

Another assay has as its target T4, biotinylated ProRS (E. coli, UniProt P16659 1-572, biotinylated with Sulfo NHS-LC-LC biotin, sites not stated).
T4 construct: also called biotinylated E. coli ProRS
T4 sequence: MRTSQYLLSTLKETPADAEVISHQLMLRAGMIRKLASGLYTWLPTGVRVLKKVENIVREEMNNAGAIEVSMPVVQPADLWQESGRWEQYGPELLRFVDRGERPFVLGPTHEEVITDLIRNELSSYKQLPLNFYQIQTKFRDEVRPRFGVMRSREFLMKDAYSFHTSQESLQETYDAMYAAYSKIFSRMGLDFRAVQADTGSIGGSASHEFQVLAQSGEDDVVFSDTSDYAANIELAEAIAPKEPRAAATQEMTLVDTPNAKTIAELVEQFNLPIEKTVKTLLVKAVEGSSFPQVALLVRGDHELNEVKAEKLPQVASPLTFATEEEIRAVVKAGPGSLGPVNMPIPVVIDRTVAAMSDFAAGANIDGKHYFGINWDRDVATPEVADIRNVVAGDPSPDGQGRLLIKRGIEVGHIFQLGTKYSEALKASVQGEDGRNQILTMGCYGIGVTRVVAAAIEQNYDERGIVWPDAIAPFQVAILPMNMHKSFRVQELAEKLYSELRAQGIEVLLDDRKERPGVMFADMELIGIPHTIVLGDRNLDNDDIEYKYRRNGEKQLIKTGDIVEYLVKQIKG
The experiment in a line: phage ELISA, biotinylated target.

For assay [4], the target named is T5, E. coli proline tRNA synthetase (E. coli, UniProt P16659 1-572).
T5 construct: also called ProRS; E. coli ProRS
T5 sequence: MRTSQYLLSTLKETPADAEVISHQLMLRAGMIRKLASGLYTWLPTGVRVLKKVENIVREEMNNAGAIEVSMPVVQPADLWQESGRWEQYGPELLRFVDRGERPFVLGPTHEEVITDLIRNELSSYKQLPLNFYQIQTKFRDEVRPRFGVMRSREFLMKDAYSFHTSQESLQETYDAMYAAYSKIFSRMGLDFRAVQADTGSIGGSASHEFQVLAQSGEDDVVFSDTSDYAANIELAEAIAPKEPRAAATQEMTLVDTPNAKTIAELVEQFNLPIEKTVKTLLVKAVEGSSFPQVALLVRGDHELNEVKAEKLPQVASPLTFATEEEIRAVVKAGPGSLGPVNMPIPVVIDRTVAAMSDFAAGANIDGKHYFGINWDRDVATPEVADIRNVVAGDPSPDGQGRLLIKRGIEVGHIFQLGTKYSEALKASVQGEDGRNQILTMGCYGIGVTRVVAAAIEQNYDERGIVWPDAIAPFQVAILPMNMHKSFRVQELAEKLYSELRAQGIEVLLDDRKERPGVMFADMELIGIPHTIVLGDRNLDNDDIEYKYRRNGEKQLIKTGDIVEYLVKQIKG
Nature of the assay: phage ELISA on immobilized ProRS and a variety of proteins.

Assay [5] deals with T5, E. coli proline tRNA synthetase. The experiment in a line: ELSA, immobilized targets (legend of FIG. 17).
The next assay has as its target T6, GST (UniProt P08515 1-218 = GST).
T6 construct: also called glutathione-S-transferase
The experiment in a line: ELSA: biotinylated peptide pre-complexed with SA-AP, immobilized target.

The next assay addresses streptavidin (UniProt P22629 37-163, limits assumed). The assay is described as above.
For assay [6], the target named is T5, E. coli proline tRNA synthetase. Nature of the assay: ELSA, immobilized ProRS.
Assay [7] has the same target. Nature of the assay: tRNA charging assay (enzyme inhibition), competitive in respect to proline.

Where no end group is shown, it is not given here. The star is where a group is joined. Biotin = O=C1N[C@H]2[C@H](CS[C@H]2CCCCC(=O)*)N1

streptavidin, sequence (P22629 37-163 limits assumed): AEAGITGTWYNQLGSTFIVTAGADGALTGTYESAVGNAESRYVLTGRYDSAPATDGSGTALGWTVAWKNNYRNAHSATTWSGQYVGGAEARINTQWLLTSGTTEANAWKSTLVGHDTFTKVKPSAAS
T6 sequence (P08515 whole entry): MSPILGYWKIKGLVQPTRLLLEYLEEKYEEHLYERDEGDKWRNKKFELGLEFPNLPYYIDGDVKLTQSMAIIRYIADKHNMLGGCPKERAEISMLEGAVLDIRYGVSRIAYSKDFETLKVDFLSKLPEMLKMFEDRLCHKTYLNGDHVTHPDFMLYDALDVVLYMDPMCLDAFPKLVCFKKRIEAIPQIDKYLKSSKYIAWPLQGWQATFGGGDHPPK
Description for GST: Target protein was immobilized in microtiter wells by incubating 0.5-2.0 μg per well in 100 μl of 0.1 M NaHCO₃ overnight at 4° C. […] During the 1 hour blocking period, the SA-AP:surrogate ligand conjugate was prepared by mixing 2 μg SA-AP and 50 pmol biotinylated surrogate ligand for each well of target protein. (This corresponds to a 1:1 ratio of biotinylated peptide to biotin binding sites.) The mixture was incubated at room temperature for 15-20 minutes and then diluted with Tris-buffered saline-Tween-20 (TBST) 10 mM Tris-HCl, pH 8.0, 150 mM NaCl, 0.05% Tween-20 such that there was 100 μl of conjugate per well.
After blocking, the wells were washed once with 200 μl TBST. The surrogate ligand:SA-AP conjugate was then added (100 μl/well) and incubated at room temperature for 2 hours. […] The assay was developed by adding 100 μl of pNPP and incubating at room temperature for 5-10 minutes. The absorbance was read at 405 nm.

As for SSGAFKPWPVYSFSR (on M13 phage; group 2) [phage-displayed peptide SSGAFKPWPVYSFSR (W library)], the binding result in assay [1] is reported as “binds”.
In the case of SSSFKPWPIYLGSSR (on M13 phage; group 2) [phage-displayed peptide SSSFKPWPIYLGSSR (P library)], the “fold ELISA signal on the specific target vs any other targets tested” value (“fold ELISA signal on the specific target” for short) in assay [2] was no less than 10 fold.
With SSFRELKPGWWSYSR (on M13 phage) [phage-displayed peptide SSFRELKPGWWSYSR (P library)], in [3], the “fold ELISA signal on the specific target” value was no less than 10 fold.
With SSTSLPFNRWPIYSR (on M13 phage; group 2) [phage-displayed peptide SSTSLPFNRWPIYSR (N library)], the binding result in assay [1] is on record as “binds”.
On to SSSTDWLNVWRQLSR (on M13 phage; group 1) [phage-displayed peptide SSSTDWLNVWRQLSR (N library)], for which the binding result in [1] was “binds”.
Take SSERGSGDRGEKGSR (on M13 phage) [phage-displayed peptide SSERGSGDRGEKGSR (D library)]: the binding result with biotinylated ProRS is on record as “binds”.
Take SVSVGMKPSPRP (on M13 phage) [phage-displayed peptide SVSVGMKPSPRP (PHD12 library)]: the “fold ELISA signal on the specific target” value in assay [2] is no less than 10 fold.
For SRDWGFWRLPESMASR (on M13 phage) [phage-displayed peptide SRDWGFWRLPESMASR (CWL library)], the binding result with biotinylated ProRS was “binds”.
As to SRWCELWPEGSGCSR (on M13 phage) [ProRS-binding phage peptide SRWCELWPEGSGCSR (P library)], the binding result in [4] is given as “binds”.
Turning to LYSWPDEQYERP (also: biotinylated, position not given here, also called TyrRS1B; TyrRS BioKey) [biotinylated peptide TyrRS1], the binding result in assay [5] is recorded as “no binding”.
On to SRLCDIMPQTVGCSR (on M13 phage) [ProRS-binding phage peptide SRLCDIMPQTVGCSR (P library)], for which, in [4], the binding result is listed as “binds”.
With SSWGDYFNWRDGLSR (on M13 phage) [phage-displayed peptide SSWGDYFNWRDGLSR (N library)], the “fold ELISA signal on the specific target” value in assay [3] is no less than 10 fold.

B1: biotinylated UL44 surrogate ligand peptide (peptide)
peptide: Biotin-SGSGEHVCSWGWGRC
modifications: not fully specified (bridges); cysteine pairing not given here
notes: synthetic; pre-complexed with streptavidin alkaline phosphatase (SA-AP) in the ELSA; also called UL44 BioKey
Consider B1, for which the binding result (with GST; with streptavidin; in assay [6]) was “no binding” each time.
As for SSATDWGRVYSILSR (on M13 phage; group 1) [phage-displayed peptide SSATDWGRVYSILSR (R library)], the binding result in assay [1] was “binds”.
Regarding SRLLEVSPGWWQMSR (on M13 phage) [phage-displayed peptide SRLLEVSPGWWQMSR (P library)], the “fold ELISA signal on the specific target” value in assay [3] was no less than 10 fold.
SRWCELWSQDIGCSR (on M13 phage) [ProRS-binding phage peptide SRWCELWSQDIGCSR (X10C library)]: the binding result in assay [4] was “binds”.

B2: non-biotinylated ProRS peptide (peptide)
peptide: VCAIWPDLDGC
notes: also called non-biotinylated ProRS surrogate ligand
For B2, the Ki in [7] is greater than 500 µM.
As to SRWCEVWPDKRWCSR (on M13 phage) [ProRS-binding phage peptide SRWCEVWPDKRWCSR (P library)], the binding result in [4] is recorded as “binds”.
Regarding SSLLNESRLQWSTSR (on M13 phage) [phage-displayed peptide SSLLNESRLQWSTSR (R library)], in [2], the “fold ELISA signal on the specific target” value was no less than 10 fold.
For the molecule SSQTDWRKIFQSLSR (on M13 phage; group 1) [phage-displayed peptide SSQTDWRKIFQSLSR (K library)], the binding result in [1] is “binds”.
With SSASYAPWPIYFASR (on M13 phage; group 2) [phage-displayed peptide SSASYAPWPIYFASR (W library)], in assay [1], the binding result was “binds”.
As for SRQVEVFKPWPVYSR (on M13 phage; group 2) [phage-displayed peptide SRQVEVFKPWPVYSR (K library)], the “fold ELISA signal on the specific target” value in [2] is no less than 10 fold.
For the molecule SRLCEVWPQTAGCSR (on M13 phage) [ProRS-binding phage peptide SRLCEVWPQTAGCSR (X10C library)], the binding result in assay [4] was “binds”.

B3: ProRS-binding phage peptide SRVCAIWPDLDGCSR (X10C library) (peptide)
peptide: SRVCAIWPDLDGCSR
notes: on M13 phage; SR linkers included as printed; also called most often isolated phage
For B3, the binding result in assay [4] is given as “binds”.
As for SSSVPFAPWPVYASR (on M13 phage; group 2) [phage-displayed peptide SSSVPFAPWPVYASR (P library)], the binding result in assay [1] was “binds”.
Turning to SREWHFWRDYNPTSR (on M13 phage) [phage-displayed peptide SREWHFWRDYNPTSR (R library)], the binding result in the assay with biotinylated ProRS is listed as “binds”.
Take SRWCSLRPQDEGCSR (on M13 phage) [ProRS-binding phage peptide SRWCSLRPQDEGCSR (X10C library)]: the binding result in assay [4] is given as “binds”.
SSNYWWQSPVLSRHSR (on M13 phage) [phage-displayed peptide SSNYWWQSPVLSRHSR (CWL library)]: the “fold ELISA signal on the specific target” value in assay [2] is no less than 10 fold.
Turning to SSEPFSVWPIYKHSR (on M13 phage; group 2) [phage-displayed peptide SSEPFSVWPIYKHSR (W library)], in [1], the binding result is reported as “binds”.
On to SSWQGNVLLGNWISR (on M13 phage) [phage-displayed peptide SSWQGNVLLGNWISR (L library)], for which the “fold ELISA signal on the specific target” value in assay [2] was no less than 10 fold.
With SRDWGFWDWGVDRSR (on M13 phage) [phage-displayed peptide SRDWGFWDWGVDRSR (D library)], in the assay with biotinylated ProRS, the binding result was “binds”.
Take SRWCDIWPDTGSCSR (on M13 phage) [ProRS-binding phage peptide SRWCDIWPDTGSCSR (P library)]: the binding result in [4] is on record as “binds”.
